Data reported in US20260083855A1 (Hoffmann-La Roche, published 2026).

T1: human LAG-3 on activated CD4 T cells (human, UniProt P18627 23-525)
T1 sequence (looked up): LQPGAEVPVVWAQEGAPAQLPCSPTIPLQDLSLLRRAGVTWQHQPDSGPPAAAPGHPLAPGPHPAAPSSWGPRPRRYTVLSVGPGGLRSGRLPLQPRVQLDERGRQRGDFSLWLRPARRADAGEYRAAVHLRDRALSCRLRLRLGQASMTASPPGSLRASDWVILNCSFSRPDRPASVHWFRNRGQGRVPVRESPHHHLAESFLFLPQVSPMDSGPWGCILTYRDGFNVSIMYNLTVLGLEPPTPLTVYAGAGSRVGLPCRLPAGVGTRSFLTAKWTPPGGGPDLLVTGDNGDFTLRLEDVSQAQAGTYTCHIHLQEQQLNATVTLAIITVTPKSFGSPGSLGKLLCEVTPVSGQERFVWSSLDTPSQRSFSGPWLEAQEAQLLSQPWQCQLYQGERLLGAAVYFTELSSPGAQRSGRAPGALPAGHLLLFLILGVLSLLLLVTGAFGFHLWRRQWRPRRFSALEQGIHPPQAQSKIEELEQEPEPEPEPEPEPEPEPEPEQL

T2: IL-2R on human cells (activated CD4 T cells, PBMC subsets, NK92) (human, UniProt P14784 27-551; P31785 23-369)
T2 sequence (looked up) 1: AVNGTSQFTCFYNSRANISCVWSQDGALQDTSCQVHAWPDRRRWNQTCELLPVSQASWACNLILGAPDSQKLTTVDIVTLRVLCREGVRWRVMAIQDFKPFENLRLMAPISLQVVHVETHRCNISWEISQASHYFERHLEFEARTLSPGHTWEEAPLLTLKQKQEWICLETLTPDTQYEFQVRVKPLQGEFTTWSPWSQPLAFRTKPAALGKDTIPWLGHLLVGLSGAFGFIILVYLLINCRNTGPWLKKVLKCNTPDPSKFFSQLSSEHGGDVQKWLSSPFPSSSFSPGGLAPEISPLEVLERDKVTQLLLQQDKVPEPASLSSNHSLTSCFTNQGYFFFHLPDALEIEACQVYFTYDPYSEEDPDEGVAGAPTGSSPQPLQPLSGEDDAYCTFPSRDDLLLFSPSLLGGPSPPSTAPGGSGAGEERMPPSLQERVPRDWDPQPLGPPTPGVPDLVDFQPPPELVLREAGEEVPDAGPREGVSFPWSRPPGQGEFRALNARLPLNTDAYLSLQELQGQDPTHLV
T2 sequence (looked up) 2: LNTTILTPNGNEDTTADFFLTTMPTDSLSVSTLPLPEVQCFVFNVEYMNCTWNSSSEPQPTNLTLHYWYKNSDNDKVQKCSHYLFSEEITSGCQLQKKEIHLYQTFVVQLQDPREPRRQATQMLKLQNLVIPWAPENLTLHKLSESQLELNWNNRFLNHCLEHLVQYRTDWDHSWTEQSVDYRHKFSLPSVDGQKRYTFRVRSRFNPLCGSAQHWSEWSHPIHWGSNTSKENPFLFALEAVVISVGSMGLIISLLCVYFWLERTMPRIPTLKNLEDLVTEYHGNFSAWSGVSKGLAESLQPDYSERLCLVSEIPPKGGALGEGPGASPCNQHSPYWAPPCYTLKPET

B1: anti-PD1 IgG PG LALA (P1AA6888) (antibody, V domains shown)
VH: EVQLLESGGGLVQPGGSLRLSCAASGFSFSSYTMSWVRQAPGKGLEWVATISGGGRDIYYPDSVKGRFTISRDNSKNTLYLQMNSLRAEDTAVYYCVLLTGRVYFALDSWGQGTLVTVSS
VL: DIVMTQSPDSLAVSLGERATINCKASESVDTSDNSFIHWYQQKPGQSPKLLIYRSSTLESGVPDRFSGSGSGTDFTLTISSLQAEDVAVYYCQQNYDVPWTFGQGTKVEIKR
B2: PD1-LAG3-IL2v (P1AF4801) (bispecific antibody, human IgG1, kappa, L234A L235A)
light 1: EVQLLESGGGLVQPGGSLRLSCAASGFSFSSYTMSWVRQAPGKGLEWVATISGGGRDIYYPDSVKGRFTISRDNSKNTLYLQMNSLRAEDTAVYYCVLLTGRVYFALDSWGQGTLVTVSSASVAAPSVFIFPPSDEQLKSGTASVVCLLNNFYPREAKVQWKVDNALQSGNSQESVTEQDSKDSTYSLSSTLTLSKADYEKHKVYACEVTHQGLSSPVTKSFNRGEC
light 2: not shown
heavy 1: EVQLLESGGGLVQPGGSLRLSCAASGFIFDDYTMNWVRQAPGKGLEWVAVISWDGGGTYYTDSVKGRFTISRDDFKNTLYLQMNSLRAEDTAVYYCAKGLTDTTLYGSDYWGQGTLVTVSSASTKGPSVFPLAPSSKSTSGGTAALGCLVEDYFPEPVTVSWNSGALTSGVHTFPAVLQSSGLYSLSSVVTVPSSSLGTQTYICNVNHKPSNTKVDEKVEPKSCDKTHTCPPCPAPEAAGGPSVFLFPPKPKDTLMISRTPEVTCVVVDVSHEDPEVKFNWYVDGVEVHNAKTKPREEQYNSTYRVVSVLTVLHQDWLNGKEYKCKVSNKALGAPIEKTISKAKGQPREPQVCTLPPSRDELTKNQVSLSCAVKGFYPSDIAVEWESNGQPENNYKTTPPVLDSDGSFFLVSKLTVDKSRWQQGNVFSCSVMHEALHNHYTQKSLSLSPGK
heavy 2: not shown
B3: PD1-LAG3-IL2v Q126T (P1AF7951) (bispecific antibody, human IgG1, kappa, L234A L235A)
light 1: EVQLLESGGGLVQPGGSLRLSCAASGFSFSSYTMSWVRQAPGKGLEWVATISGGGRDIYYPDSVKGRFTISRDNSKNTLYLQMNSLRAEDTAVYYCVLLTGRVYFALDSWGQGTLVTVSSASVAAPSVFIFPPSDEQLKSGTASVVCLLNNFYPREAKVQWKVDNALQSGNSQESVTEQDSKDSTYSLSSTLTLSKADYEKHKVYACEVTHQGLSSPVTKSFNRGEC
light 2: not shown
heavy 1: EVQLLESGGGLVQPGGSLRLSCAASGFIFDDYTMNWVRQAPGKGLEWVAVISWDGGGTYYTDSVKGRFTISRDDFKNTLYLQMNSLRAEDTAVYYCAKGLTDTTLYGSDYWGQGTLVTVSSASTKGPSVFPLAPSSKSTSGGTAALGCLVEDYFPEPVTVSWNSGALTSGVHTFPAVLQSSGLYSLSSVVTVPSSSLGTQTYICNVNHKPSNTKVDEKVEPKSCDKTHTCPPCPAPEAAGGPSVFLFPPKPKDTLMISRTPEVTCVVVDVSHEDPEVKFNWYVDGVEVHNAKTKPREEQYNSTYRVVSVLTVLHQDWLNGKEYKCKVSNKALGAPIEKTISKAKGQPREPQVCTLPPSRDELTKNQVSLSCAVKGFYPSDIAVEWESNGQPENNYKTTPPVLDSDGSFFLVSKLTVDKSRWQQGNVFSCSVMHEALHNHYTQKSLSLSPGK
heavy 2: not shown

Columns and labels:
Test in all cases: cell-based or functional assay
[1] = target: T3, human PD-1 on activated CD4 T cells (human, UniProt Q15116 25-288)
T3 sequence (Q15116 25-288 limits assumed): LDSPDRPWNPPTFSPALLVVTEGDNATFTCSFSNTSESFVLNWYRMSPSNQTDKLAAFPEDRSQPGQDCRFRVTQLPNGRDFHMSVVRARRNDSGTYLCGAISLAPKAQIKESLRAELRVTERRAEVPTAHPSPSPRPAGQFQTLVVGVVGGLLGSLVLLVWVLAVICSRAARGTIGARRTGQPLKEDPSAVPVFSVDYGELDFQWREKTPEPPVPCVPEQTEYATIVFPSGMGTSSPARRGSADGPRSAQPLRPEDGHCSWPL

[2] = target: T3, human PD-1 on activated CD4 T cells; remark: listed apart in the source
[3] = target: T1, human LAG-3 on activated CD4 T cells
[4] = target: T2, IL-2R on human cells (activated CD4 T …)
[5] = target: T3, human PD-1 on activated CD4 T cells; remark: listed apart in the source
[6] = target: T2, IL-2R on human cells (activated CD4 T …); remark: listed apart in the source
[7] = target: T1, human LAG-3 on activated CD4 T cells; remark: listed apart in the source

Row | Binder | Percentage of internalization (0.6 nM, activated CD4 T cells, 3 h at 37 C) [1] [%] | STAT5-P potency on PD-1+, LAG-3+ T cells against PD1-IL2v [2] [fold] | STAT5-P potency on PD-1+, LAG-3+ T cells against PD1-IL2v [3] [fold] | Percentage of internalization (0.6 nM, activated CD4 T cells, 3 h at 37 C) [4] [%] | Cis-delivery: fold increase in EC50, EC50 [PD1/LAG-3 bl.]/EC50 [PD1+/LAG-3+] [5] [fold] | Potency reduction vs PD1-IL2v on PD-1+ LAG-3+ T cells [6] [fold] | Cis-delivery: fold increase in EC50, EC50 [PD1/LAG-3 bl.]/EC50 [PD1+/LAG-3+] [7] [fold]
1 | B1 | 13.6 |  |  |  |  |  | 
2 | B2 |  | 127 | 127 | 25.7 | 1110 | 0.00787 | 1110
3 | B3 |  | 6.5 | 6.5 | 28.1 | 485 | 0.154 | 485
